# Measured values taken from US12508302B2, “Pharmaceutical composition providing mucolytic effect” (FRIMLINE PRIVATE LIMITED, priority 2022, dated 2025).
# B1: Lactoferrin (protein, UniProt P02788 20-710, looked up)
# Lactotransferrin: GRRRSVQWCAVSQPEATKCFQWQRNMRKVRGPPVSCIKRDSPIQCIQAIAENRADAVTLDGGFIYEAGLAPYKLRPVAAEVYGTERQPRTHYYAVAVVKKGGSFQLNELQGLKSCHTGLRRTAGWNVPIGTLRPFLNWTGPPEPIEAAVARFFSASCVPGADKGQFPNLCRLCAGTGENKCAFSSQEPYFSYSGAFKCLRDGAGDVAFIRESTVFEDLSDEAERDEYELLCPDNTRKPVDKFKDCHLARVPSHAVVARSVNGKEDAIWNLLRQAQEKFGKDKSPKFQLFGSPSGQKDLLFKDSAIGFSRVPPRIDSGLYLGSGYFTAIQNLRKSEEEVAARRARVVWCAVGEQELRKCNQWSGLSEGSVTCSSASTTEDCIALVLKGEADAMSLDGGYVYTAGKCGLVPVLAENYKSQQSSDPDPNCVDRPVEGYLAVAVVRRSDTSLTWNSVKGKKSCHTAVDRTAGWNIPMGLLFNQTGSCKFDEYFSQSCAPGSDPRSNLCALCIGDEQGENKCVPNSNERYYGYTGAFRCLAENAGDVAFVKDVTVLQNTDGNNNEAWAKDLKLADFALLCLDGKRKPVTEARSCHLAMAPNHAVVSRMDKVERLKQVLLHQQAKFGRNGSDCPDKFCLFQSETKNLLFNDNTECLARLHGKTTYEKYLGPQYVAGITNLKKCSTSPLLEACEFLRK
# notes: multifunctional globular glycoprotein of the transferrin family, molecular mass about 80 kDa
# Test system: tracheobronchial secretion in rats
# Assay: Mucolytic activity in rats: tracheobronchial secretion of fluorescein sodium (FINa)
# Assay type: in vivo, rat (Swiss Albino Rats)
# Settings: for Percentage (%) Enhancement of FINa secretion compared to Normal: versus normal group (G1)
# Method: The effect of the compositions of the present invention was studied in animals. For this study, screening effect of synergistic combination of compositions/formulations comprising N-Acetyl-L-Cysteine, Lactoferrin and additional active ingredients for mucolytic activity in rat was performed. The following trials were carried out:
# Eighty-Four (84) rats including male and female (Swiss Albino Rats) divided into 14 groups (6 per group) were maintained in animal house in a light/dark atmosphere based on a 12 hour cycle having temperature and relative humidity in the range of 19 to 25±2° C. and 30-70%, respectively. To maintain the appropriate conditions, temperature and relative humidity were recorded three times daily. All animals were acclimatized for a minimum period of five days. Animals were maintained in the test setup for minimum 30 minutes once during the acclimatization period to reduce the stress. Animals were weighed on the day of receipt and observed daily for abnormalities if any. Detailed records of acclimatization were also maintained. Rats were housed 3 per cage in clean, sterilized Polypropylene cages. During complete experiments, animals were supplied with the standard certified rat pellet feed and drinking water treated by reverse osmosis ad libitum.
# In order to evaluate the mucolytic activity in rats, eighty-four (84) rats were screened and divided into Fourteen (14) groups. For a comparative analysis, groups were divided and treated as below:
# Tracheobronchial secretion in rats, expressed by the amount of fluorescein sodium (FINa) dye excreted into the respiratory tract, was measured by modification of methods published earlier.
# Lactoferrin, Carotenoid, N-Acetyl-L-Cysteine or their combinations (G4-G14) were suspended in 1% Acacia. […]
# The tracheobronchial lavage fluid (4.9±0.1 ml) was centrifuged (3500 rpm for 10 minutes) and the supernatant was transferred to STP B & L tubes. The fluorescence intensity of the supernatant was measured with a Genesys 20 spectrophotometer set at a wavelength of 510 nm (emission).
molecule,measurement,setting,value
B1,Fluorescein Sodium (FINa) Secretion,"dosed 30 minutes before i.v. FINa 300 mg/kg, tracheobronchial lavage one hour after administration, doses as Table 1, mean±SEM",1.79 ± 0.04 μg/100 g/h
same,Percentage (%) Enhancement of FINa secretion compared to Normal,doses as Table 1,25.17 ± 1%
same,Percentage (%) Enhancement of FINa secretion compared to Normal,"doses as Table 1, listed as Lactoferrin",25.17%
